Three molecules from US20180282409A1 (Hoffmann-La Roche, published 2018) can be followed below.

Assay [1] addresses T1, extracellular domain of recombinant human CD19 receptor (human, UniProt P15391 20-291).
T1 construct: extracellular domain; also called recombinant human CD19 ECD
T1 sequence (looked up): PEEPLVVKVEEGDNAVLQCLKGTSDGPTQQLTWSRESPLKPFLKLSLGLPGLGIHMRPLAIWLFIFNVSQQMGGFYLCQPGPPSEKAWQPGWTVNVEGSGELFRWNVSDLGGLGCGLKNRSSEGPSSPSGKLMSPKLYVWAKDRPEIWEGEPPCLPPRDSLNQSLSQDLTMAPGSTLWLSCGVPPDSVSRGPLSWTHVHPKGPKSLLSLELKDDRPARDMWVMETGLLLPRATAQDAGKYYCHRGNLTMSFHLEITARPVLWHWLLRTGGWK
Briefly: SPR (BIAcore), half-life of the complex.

Assay [2] has as its target T2, cynomolgus monkey CD19 extracellular domain (ECD) fused to the human PSCA GPI anchor sequence, on transfected … (cynomolgus monkey; human).
T2 construct: Presented on the surface of transiently transfected HEK293 cells; its processing in the cell is not described; also called cynomolgus CD19-ECD; cyCD19 ECD
T2 chain: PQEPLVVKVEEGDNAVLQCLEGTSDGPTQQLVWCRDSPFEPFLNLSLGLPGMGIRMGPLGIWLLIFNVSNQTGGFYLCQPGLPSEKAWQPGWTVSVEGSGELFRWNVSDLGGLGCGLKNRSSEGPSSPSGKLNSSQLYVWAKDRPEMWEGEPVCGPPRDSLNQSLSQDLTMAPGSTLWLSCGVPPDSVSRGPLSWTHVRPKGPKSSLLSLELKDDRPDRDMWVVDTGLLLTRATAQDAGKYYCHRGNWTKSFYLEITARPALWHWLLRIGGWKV
The experiment in a line: flow cytometry on HEK293 cells presenting cynomolgus CD19 ECD by GPI anchor. The procedure:
HEK293 cells were transfected with 1 μg of plasmid DNA per 1.5×10⁶ cells using LipofectAmine 2000 and incubated thereafter for 48 hours at 37° C. […] GWKV; SEQ ID NO: 31) extracellular domain (ECD) fused to the human PSCA GPI anchor sequence ([…] WGPGQL; SEQ ID NO: 32) for extracellular presentation. […] The starting concentration of the antibodies was set to 60 μg/mL (2× final concentration) and then diluted in a 1:3 (v/v) titration series. The primary antibody was incubated on the cells for one hour at room temperature, followed by two wash steps. For secondary detection, anti-huIgG (H+L) antibody conjugated to Alexa488 in a concentration of 30 μg/mL was used.

B1: humanized anti-human CD19 antibody var.5:S27eP (antibody, V domains shown)
VH: QVQLVQSGAEVKKPGASVKVSCKASGYTFTDYIMHWVRQAPGQGLEWMGYINPYNDGSKYTEKFQGRVTMTSDTSISTAYMELSRLRSDDTAVYYCARGTYYYGSALFDYWGQGTTVTVSS
VL: DIVMTQTPLSLSVTPGQPASISCKSSQSLENPNGNTYLNWYLQKPGQSPQLLIYRVSKRFSGVPDRFSGSGSGTDFTLKISRVEAEDVGVYYCLQLTHVPYTFGQGTKLEIK
notes: also called variant 5 (S27eP); variant 5
With B1, the t1/2 in assay [1] was 43.6 min.

B2: humanized anti-human CD19 antibody var.9:S27eP/N28S (antibody, V domains shown)
VH: QVQLVQSGAEVKKPGASVKVSCKASGYTFTDYIMHWVRQAPGQGLEWMGYINPYNDGSKYTEKFQGRVTMTSDTSISTAYMELSRLRSDDTAVYYCARGTYYYGSALFDYWGQGTTVTVSS
VL: DIVMTQTPLSLSVTPGQPASISCKSSQSLENPSGNTYLNWYLQKPGQSPQLLIYRVSKRFSGVPDRFSGSGSGTDFTLKISRVEAEDVGVYYCLQLTHVPYTFGQGTKLEIK
notes: also called variant 9 (S27eP/N28S); variant 9
With B2, the t1/2 in assay [1] came to 4 min.

B3: wild-type humanized anti-human CD19 antibody (var.0: wt) (antibody, V domains shown)
VH: EVQLQQSGPELVKPGASVKMACKASGYTFTDYIMHWVKQKTGQGLEWIGYINPYNDGSKYTEKFNGKATLTSDKSSITAYMELSSLTSEDSAVYYCARGTYYYGSALFDYWGQGTTLTVSS
VL: DAVMTQTPLSLPVSLGDQASISCRSSQSLENSNGNTYLNWYLQKPGQSPQLLIYRVSKRFSGVLDRFSGSGSGTDFTLKISRVEAEDLGVYFCLQLTHVPYTFGGGTKLEIK
notes: it was detected with anti-human IgG and captured with anti-human Fab; also called variant 0: wt; humanized wild-type antibody
By EC50 is commonly meant the concentration needed to bring the measured effect to its halfway point. As to B3, the EC50 in assay [2] came out at 0.313 µg/mL.
